The text below walks through data of article PMC5052711.

Series [1] can be described thus: whole-cell patch-clamp, 37°C. As to conditions: glycan lost; control: wild type. (Patch clamp records ionic current or voltage across a cell membrane.)
Series [2] is described as follows: whole-cell patch-clamp, maximum amplitude. Particulars: glycan lost; control: wild type.
A short description of series [3]: fluorometric membrane depolarization, maximal RFU. As to conditions: glycan lost; control: wild type.
Series [4] can be described thus: fluorometric membrane depolarization, 23°C vs 37°C. Particulars: glycan lost; control: wild type (less sensitive at 23°C than at 37°C).
Series [5] in a line: fluorometric membrane depolarization, FlexStation, 37°C. Particulars: glycan lost; control: wild type.
Series [6] can be described thus: anti-FLAG WB of cell lysates, normalized to total protein. Particulars: glycan lost; control: wild type.
Series [7] can be described thus: ratio of WT-relative surface to WT-relative total expression. As to conditions: glycan lost; control: wild type.

B1: hTRPA1: N747/753Q (protein)
parent chain: MKRSLRKMWRPGEKKEPQGVVYEDVPDDTEDFKESLKVVFEGSAYGLQNFNKQKKLKRCDDMDTFFLHYAAAEGQIELMEKITRDSSLEVLHEMDDYGNTPLHCAVEKNQIESVKFLLSRGANPNLRNFNMMAPLHIAVQGMNNEVMKVLLEHRTIDVNLEGENGNTAVIIACTTNNSEALQILLKKGAKPCKSNKWGCFPIHQAAFSGSKECMEIILRFGEEHGYSRQLHINFMNNGKATPLHLAVQNGDLEMIKMCLDNGAQIDPVEKGRCTAIHFAATQGATEIVKLMISSYSGSVDIVNTTDGCHETMLHRASLFDHHELADYLISVGADINKIDSEGRSPLILATASASWNIVNLLLSKGAQVDIKDNFGRNFLHLTVQQPYGLKNLRPEFMQMQQIKELVMDEDNDGCTPLHYACRQGGPGSVNNLLGFNVSIHSKSKDKKSPLHFAASYGRINTCQRLLQDISDTRLLNEGDLHGMTPLHLAAKNGHDKVVQLLLKKGALFLSDHNGWTALHHASMGGYTQTMKVILDTNLKCTDRLDEDGNTALHFAAREGHAKAVALLLSHNADIVLNKQQASFLHLALHNKRKEVVLTIIRSKRWDECLKIFSHNSPGNKCPITEMIEYLPECMKVLLDFCMLHSTEDKSCRDYYIEYNFKYLQCPLEFTKKTPTQDVIYEPLTALNAMVQNNRIELLNHPVCKEYLLMKWLAYGFRAHMMNLGSYCLGLIPMTILVVNIKPGMAFNSTGIINETSDHSEILDTTNSYLIKTCMILVFLSSIFGYCKEAGQIFQQKRNYFMDISNVLEWIIYTTGIIFVLPLFVEIPAHLQWQCGAIAVYFYWMNFLLYLQRFENCGIFIVMLEVILKTLLRSTVVFIFLLLAFGLSFYILLNLQDPFSSPLLSIIQTFSMMLGDINYRESFLEPYLRNELAHPVLSFAQLVSFTIFVPIVLMNLLIGLAVGDIAEVQKHASLKRIAMQVELHTSLEKKLPLWFLRKVDQKSTIVYPNKPRSGGMLFHIFCFLFCTGEIRQEIPNADKSLEMEILKQKYRLKDLTFLLEKQHELIKLIIQKMEIISETEDDDSHCSFQDRFKKEQMEQRNSRWNTVLRAVKAKTHHLEP
On to B1, for which the “other: agonist sensitivity, EC50” value in series [1] was “decreases, 142.3 vs 35.0”; in series [5] it was “decreases, 20.9 vs 9.5”. Further, the “other: channel current” value in series [2] is “no change”. Also, the “other: maximal channel response, other: mean maximal RFU” value (from here on “other: maximal channel response, other”) in series [3] is reported as “no change, 866 vs 1155”. Further, in series [4], the “other: temperature dependence of agonist sensitivity, EC50” value (shortened to “other: temperature dependence”) is “changes, 14.8 vs 13.5”. In series [6], the “expression_or_secretion, fold_change” value is on record as “decreases”. In series [7], the “localisation_or_trafficking, other: surface/total ratio relative to WT” value was “no change”.

B2: hTRPA1: N747Q (protein)
parent chain: B1 parent chain
Regarding B2, in series [1], the “other: agonist sensitivity, EC50” value is recorded as “decreases, 141.0 vs 35.0”. In addition, in series [2], the “other: channel current” value is recorded as “no change”. Further, in series [3], the “other: maximal channel response, other” value is “no change, 947 vs 1155”. In addition, the “other: temperature dependence” value in series [4] is “changes, 18.2 vs 13.5”. For the same protein, the “expression_or_secretion, fold_change” value in series [6] was “decreases”. For the same protein, in series [7], the “localisation_or_trafficking, other: surface/total ratio relative to WT” value is listed as “increases”.

B3: hTRPA1: N753Q (protein)
parent chain: B1 parent chain
As for B3, the “other: agonist sensitivity, EC50” value is given as “no change, 42.0 vs 35.0” in series [1] and “no change, 10.5 vs 9.5” in series [5]. In series [2], the “other: channel current” value is recorded as “no change”. The “other: maximal channel response, other” value in series [3] was “no change, 902 vs 1155”. Also, the “other: temperature dependence” value in series [4] was “no change, 18.0 vs 13.5”. Besides, the “expression_or_secretion, fold_change” value in series [6] is given as “decreases”. The “localisation_or_trafficking, other: surface/total ratio relative to WT” value in series [7] was “no change”.
